Experimental data: patent publication US6416957, “Method for modulating process mediated by farnesoid activated receptors” (The Salk Institute for Biological Studies)

Target: FAR (FXR)-RXRalpha heterodimer (Rattus norvegicus / Homo sapiens, UniProt Q62735;P19793 Q62735:1-469,P19793:1-462)
Assay: cell_activity; 50 uM JH III, CV-1 cells; 17-fold JH III, 76-fold LG69, 212-fold both in p89; parental MTV reporter lacking EcREs not activated
Details: tags: CMV-driven expression in CV-1 cells
Experimental: Thus, with reference to FIG. 5A, CV-1 cells were transiently transfected with hsp27-EcRE×5 MTV-luciferase alone (−) or with expression vectors for rat FAR and/or human RXRα. Reporter activity was assayed after treating cells with or without 50 μM JH III.

FAR (FXR)-RXRalpha heterodimer, sequence (Q62735 whole entry, chain 1 of 2): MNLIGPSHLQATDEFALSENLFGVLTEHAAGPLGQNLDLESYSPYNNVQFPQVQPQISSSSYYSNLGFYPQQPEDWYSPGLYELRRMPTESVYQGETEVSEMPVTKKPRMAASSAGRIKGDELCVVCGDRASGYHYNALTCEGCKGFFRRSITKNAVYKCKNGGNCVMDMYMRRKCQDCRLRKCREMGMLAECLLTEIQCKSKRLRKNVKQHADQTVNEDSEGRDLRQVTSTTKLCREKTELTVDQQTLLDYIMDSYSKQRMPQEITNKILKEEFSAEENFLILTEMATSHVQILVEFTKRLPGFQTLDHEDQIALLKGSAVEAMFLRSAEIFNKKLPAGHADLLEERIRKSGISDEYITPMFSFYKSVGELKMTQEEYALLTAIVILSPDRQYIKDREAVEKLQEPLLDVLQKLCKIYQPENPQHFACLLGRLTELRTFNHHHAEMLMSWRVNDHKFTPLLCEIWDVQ
FAR (FXR)-RXRalpha heterodimer, sequence (P19793 whole entry, chain 2 of 2): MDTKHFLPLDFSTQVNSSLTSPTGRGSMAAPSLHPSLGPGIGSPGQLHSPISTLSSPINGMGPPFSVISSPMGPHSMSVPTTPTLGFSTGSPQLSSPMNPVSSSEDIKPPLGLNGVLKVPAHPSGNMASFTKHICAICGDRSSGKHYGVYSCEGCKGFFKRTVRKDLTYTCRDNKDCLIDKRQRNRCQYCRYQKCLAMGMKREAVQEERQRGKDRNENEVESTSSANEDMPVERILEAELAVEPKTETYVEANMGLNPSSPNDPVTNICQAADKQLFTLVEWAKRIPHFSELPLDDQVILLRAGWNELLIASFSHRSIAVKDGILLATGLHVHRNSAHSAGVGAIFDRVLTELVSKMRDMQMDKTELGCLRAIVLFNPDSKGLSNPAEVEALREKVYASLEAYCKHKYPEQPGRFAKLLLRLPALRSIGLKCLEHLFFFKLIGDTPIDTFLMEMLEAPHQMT

B1: hsp27-EcREx5 MTV-luciferase reporter (dsDNA)
DNA 1: GGTTCAATGCACT
DNA 2: AGTGCATTGAACC
With B1 the activity was 10 fold.
